Laboratory results reported in patent US20090149339A1 (published 2009).
Ends that are not written are not given here. * marks the point of attachment. Biotin = O=C1N[C@H]2[C@H](CS[C@H]2CCCCC(=O)*)N1

biological target: GST-MPP1 PDZ domain fusion protein (55 Kd erythrocyte membrane protein AA101-186; PDZ domain 1 of 1) (UniProt P08515 1-218 = GST); experiment: A/G assays
Sequence (P08515 1-218, tags or fused parts left off): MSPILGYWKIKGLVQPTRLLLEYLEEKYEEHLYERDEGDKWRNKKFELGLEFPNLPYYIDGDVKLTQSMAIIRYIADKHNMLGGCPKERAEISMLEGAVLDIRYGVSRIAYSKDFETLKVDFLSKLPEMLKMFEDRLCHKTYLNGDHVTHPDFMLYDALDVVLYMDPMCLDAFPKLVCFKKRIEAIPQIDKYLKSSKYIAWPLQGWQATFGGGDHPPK

Binder	binding result
Biotin-LERTSSVSPSTAEPELSIVF [CC CKR-3 C-terminal PL peptide AA43L, biotinylated]	no binding
Biotin-TIYENLAPVTTFGKTIA [CD148 C-terminal PL peptide AA55L (ends KTIA), biotinylated]	no binding

biological target: T1, GST-41.8 kD PDZ domain fusion protein (hypothetical 41.8 kD protein AA4-85; PDZ domain 1 of 1) (UniProt P08515 1-218 = GST); experiment: A/G assays
T1 construct: also called hypoth
T1 sequence (P08515 1-218, tags or fused parts left off): as the sequence (P08515 1-218, tags or fused parts left off) above

Binder	binding result
Biotin-LERTSSVSPSTAEPELSIVF [CC CKR-3 C-terminal PL peptide AA43L, biotinylated]	no binding
Biotin-TIYENLAPVTTFGKTIA [CD148 C-terminal PL peptide AA55L (ends KTIA), biotinylated]	no binding

biological target: T2, GST-TAX33 PDZ domain fusion protein (tax interaction protein 33 AA73-162; PDZ domain 1 of 1) (UniProt P08515 1-218 = GST); experiment: A/G assays
T2 construct: also called TX33
T2 sequence (P08515 1-218, tags or fused parts left off): as the sequence (P08515 1-218, tags or fused parts left off) above

Binder	binding result
Biotin-LERTSSVSPSTAEPELSIVF [CC CKR-3 C-terminal PL peptide AA43L, biotinylated]	no binding
Biotin-TIYENLAPVTTFGKTIA [CD148 C-terminal PL peptide AA55L (ends KTIA), biotinylated]	no binding

biological target: GST-TIAM1 PDZ domain fusion protein (T-lymphoma invasion and metastasis inducing protein 1 AA1001-1088); PDZ 1 … (UniProt P08515 1-218 = GST); experiment: A/G assays
Sequence (P08515 1-218, tags or fused parts left off): as the sequence (P08515 1-218, tags or fused parts left off) above

Binder	binding result
Biotin-LERTSSVSPSTAEPELSIVF [CC CKR-3 C-terminal PL peptide AA43L, biotinylated]	no binding
Biotin-TIYENLAPVTTFGKTIA [CD148 C-terminal PL peptide AA55L (ends KTIA), biotinylated]	no binding

biological target: GST-NOS1 PDZ domain fusion protein (human neuronal nitric oxide synthase; PDZ domain 1 of 1) (human, UniProt P08515 1-218 = GST); experiment: A/G assays
Sequence (P08515 1-218, tags or fused parts left off): as the sequence (P08515 1-218, tags or fused parts left off) above

Binder	binding result
Biotin-LERTSSVSPSTAEPELSIVF [CC CKR-3 C-terminal PL peptide AA43L, biotinylated]	no binding
Biotin-TIYENLAPVTTFGKTIA [CD148 C-terminal PL peptide AA55L (ends KTIA), biotinylated]	no binding

biological target: T3, GST-TAX2 PDZ domain fusion protein (human tax interaction protein 2 AA54-140; PDZ domain 1 of 1) (human, UniProt P08515 1-218 = GST); experiment: A/G assays
T3 construct: also called TX 2
T3 sequence (P08515 1-218, tags or fused parts left off): as the sequence (P08515 1-218, tags or fused parts left off) above

Binder	binding result
Biotin-LERTSSVSPSTAEPELSIVF [CC CKR-3 C-terminal PL peptide AA43L, biotinylated]	no binding
Biotin-TIYENLAPVTTFGKTIA [CD148 C-terminal PL peptide AA55L (ends KTIA), biotinylated]	no binding

biological target: T4, GST-SYN1a PDZ domain fusion protein (alpha1-syntrophin AA96-189; PDZ domain 1 of 1) (UniProt P08515 1-218 = GST); experiment: A/G assays
T4 construct: also called SYN 1 alpha; SYNTR 1 alpha
T4 sequence (P08515 1-218, tags or fused parts left off): as the sequence (P08515 1-218, tags or fused parts left off) above

Binder	binding result
Biotin-LERTSSVSPSTAEPELSIVF [CC CKR-3 C-terminal PL peptide AA43L, biotinylated]	no binding
Biotin-TIYENLAPVTTFGKTIA [CD148 C-terminal PL peptide AA55L (ends KTIA), biotinylated]	no binding

biological target: GST-PTN-4 PDZ domain fusion protein (protein-tyrosine phosphatase meg1 AA774-862; PDZ domain 1 of 1) (UniProt P08515 1-218 = GST); experiment: A/G assays
Sequence (P08515 1-218, tags or fused parts left off): as the sequence (P08515 1-218, tags or fused parts left off) above

Binder	binding result
Biotin-LERTSSVSPSTAEPELSIVF [CC CKR-3 C-terminal PL peptide AA43L, biotinylated]	no binding
Biotin-TIYENLAPVTTFGKTIA [CD148 C-terminal PL peptide AA55L (ends KTIA), biotinylated]	no binding

biological target: T5, GST-TAX40 PDZ domain fusion protein (human tax interaction protein 40 AA35-137; PDZ domain 1 of 1) (human, UniProt P08515 1-218 = GST); experiment: A/G assays
T5 construct: also called TX 40
T5 sequence (P08515 1-218, tags or fused parts left off): as the sequence (P08515 1-218, tags or fused parts left off) above

Binder	binding result
Biotin-LERTSSVSPSTAEPELSIVF [CC CKR-3 C-terminal PL peptide AA43L, biotinylated]	no binding
Biotin-TIYENLAPVTTFGKTIA [CD148 C-terminal PL peptide AA55L (ends KTIA), biotinylated]	no binding

biological target: GST-MINT3 PDZ domain fusion protein (human MINT3 AA11-52; PDZ domain 1 of 1) (human, UniProt P08515 1-218 = GST); experiment: A/G assays

Binder	binding result
Biotin-LERTSSVSPSTAEPELSIVF [CC CKR-3 C-terminal PL peptide AA43L, biotinylated]	no binding
Biotin-TIYENLAPVTTFGKTIA [CD148 C-terminal PL peptide AA55L (ends KTIA), biotinylated]	no binding

biological target: GST-LIMK2 PDZ domain fusion protein (human LIM domain kinase 2 AA185-275; PDZ domain 1 of 1) (human, UniProt P08515 1-218 = GST); experiment: A/G assays
Sequence (P08515 1-218, tags or fused parts left off): as the sequence (P08515 1-218, tags or fused parts left off) above

Binder	binding result
Biotin-LERTSSVSPSTAEPELSIVF [CC CKR-3 C-terminal PL peptide AA43L, biotinylated]	no binding
Biotin-TIYENLAPVTTFGKTIA [CD148 C-terminal PL peptide AA55L (ends KTIA), biotinylated]	no binding

biological target: T6, GST-CBP PDZ domain fusion protein (Cytohesin binding protein HE AA85-175; PDZ domain 1 of 1) (UniProt P08515 1-218 = GST); experiment: A/G assays
T6 construct: also called Prot

Binder	binding result
Biotin-LERTSSVSPSTAEPELSIVF [CC CKR-3 C-terminal PL peptide AA43L, biotinylated]	no binding
Biotin-TIYENLAPVTTFGKTIA [CD148 C-terminal PL peptide AA55L (ends KTIA), biotinylated]	no binding

biological target: GST-LIM PDZ domain fusion protein (Human LIM protein AA29-112; PDZ domain 1 of 1) (human, UniProt P08515 1-218 = GST); experiment: A/G assays
Sequence (P08515 1-218, tags or fused parts left off): as the sequence (P08515 1-218, tags or fused parts left off) above

Binder	binding result
Biotin-LERTSSVSPSTAEPELSIVF [CC CKR-3 C-terminal PL peptide AA43L, biotinylated]	no binding
Biotin-TIYENLAPVTTFGKTIA [CD148 C-terminal PL peptide AA55L (ends KTIA), biotinylated]	no binding

biological target: GST-PSD95 PDZ domain fusion protein (human post-synaptic density protein 95 AA387-724; PDZ domains 1-3 of 3) (human, UniProt P08515 1-218 = GST); experiment: A/G assays
Sequence (P08515 1-218, tags or fused parts left off): as the sequence (P08515 1-218, tags or fused parts left off) above

Binder	binding result
Biotin-LERTSSVSPSTAEPELSIVF [CC CKR-3 C-terminal PL peptide AA43L, biotinylated]	no binding
Biotin-TIYENLAPVTTFGKTIA [CD148 C-terminal PL peptide AA55L (ends KTIA), biotinylated]	no binding

biological target: T7, GST-TAX43 PDZ domain fusion protein (human tax interaction protein 43 AA15-85; PDZ domain 1 of 1) (human, UniProt P08515 1-218 = GST); experiment: A/G assays
T7 construct: also called TX 43
T7 sequence (P08515 1-218, tags or fused parts left off): as the sequence (P08515 1-218, tags or fused parts left off) above

Binder	binding result
Biotin-LERTSSVSPSTAEPELSIVF [CC CKR-3 C-terminal PL peptide AA43L, biotinylated]	no binding
Biotin-TIYENLAPVTTFGKTIA [CD148 C-terminal PL peptide AA55L (ends KTIA), biotinylated]	no binding

biological target: T8, GST-CASK PDZ domain fusion protein (CASK AA495-584; PDZ domain 1 of 1) (mouse, UniProt P08515 1-218 = GST); experiment: A/G assays
T8 construct: also called mCASK
T8 sequence (P08515 1-218, tags or fused parts left off): as the sequence (P08515 1-218, tags or fused parts left off) above

Binder	binding result
Biotin-LERTSSVSPSTAEPELSIVF [CC CKR-3 C-terminal PL peptide AA43L, biotinylated]	no binding
Biotin-TIYENLAPVTTFGKTIA [CD148 C-terminal PL peptide AA55L (ends KTIA), biotinylated]	no binding

biological target: GST-AF6 PDZ domain fusion protein (af-6 protein AA985-1077; PDZ domain 1 of 1) (UniProt P08515 1-218 = GST); experiment: A/G assays
Sequence (P08515 1-218, tags or fused parts left off): as the sequence (P08515 1-218, tags or fused parts left off) above

Binder	binding result
Biotin-LERTSSVSPSTAEPELSIVF [CC CKR-3 C-terminal PL peptide AA43L, biotinylated]	no binding
Biotin-TIYENLAPVTTFGKTIA [CD148 C-terminal PL peptide AA55L (ends KTIA), biotinylated]	no binding

biological target: T9, GST-KIAA0303 PDZ domain fusion protein (KIAA0303 AA652-742; PDZ domain 1 of 1) (UniProt P08515 1-218 = GST); experiment: A/G assays
T9 construct: also called K303

Binder	binding result
Biotin-LERTSSVSPSTAEPELSIVF [CC CKR-3 C-terminal PL peptide AA43L, biotinylated]	no binding
Biotin-TIYENLAPVTTFGKTIA [CD148 C-terminal PL peptide AA55L (ends KTIA), biotinylated]	no binding

biological target: T10, GST-MPP2 PDZ domain fusion protein (maguk p55 subfamily member 2 (DLG2) AA185-273; PDZ domain 1 of 1) (UniProt P08515 1-218 = GST); experiment: A/G assays
T10 construct: also called MMP2
T10 sequence (P08515 1-218, tags or fused parts left off): as the sequence (P08515 1-218, tags or fused parts left off) above

Binder	binding result
Biotin-LERTSSVSPSTAEPELSIVF [CC CKR-3 C-terminal PL peptide AA43L, biotinylated]	no binding
Biotin-TIYENLAPVTTFGKTIA [CD148 C-terminal PL peptide AA55L (ends KTIA), biotinylated]	no binding

biological target: GST-DVL1 PDZ domain fusion protein (human dishevelled segment polarity protein homolog AA248-340); PDZ domain … (human, UniProt P08515 1-218 = GST); experiment: A/G assays
Sequence (P08515 1-218, tags or fused parts left off): as the sequence (P08515 1-218, tags or fused parts left off) above

Binder	binding result
Biotin-LERTSSVSPSTAEPELSIVF [CC CKR-3 C-terminal PL peptide AA43L, biotinylated]	no binding
Biotin-TIYENLAPVTTFGKTIA [CD148 C-terminal PL peptide AA55L (ends KTIA), biotinylated]	no binding

biological target: GST-prIL16 PDZ domain fusion protein (putative interleukin 16 precursor AA170-383; PDZ domains 1-2 of 2) (UniProt P08515 1-218 = GST); experiment: A/G assays
Sequence (P08515 1-218, tags or fused parts left off): as the sequence (P08515 1-218, tags or fused parts left off) above

Binder	binding result
Biotin-LERTSSVSPSTAEPELSIVF [CC CKR-3 C-terminal PL peptide AA43L, biotinylated]	no binding
Biotin-TIYENLAPVTTFGKTIA [CD148 C-terminal PL peptide AA55L (ends KTIA), biotinylated]	no binding

biological target: T11, GST-KIAA0559 PDZ domain fusion protein (KIAA0559 AA766-870; PDZ1 of 1) (UniProt P08515 1-218 = GST); experiment: A/G assays
T11 construct: also called K559
T11 sequence (P08515 1-218, tags or fused parts left off): as the sequence (P08515 1-218, tags or fused parts left off) above

Binder	binding result
Biotin-LERTSSVSPSTAEPELSIVF [CC CKR-3 C-terminal PL peptide AA43L, biotinylated]	no binding
Biotin-TIYENLAPVTTFGKTIA [CD148 C-terminal PL peptide AA55L (ends KTIA), biotinylated]	no binding

biological target: T12, GST-NeDLG PDZ domain fusion protein (presynaptic protein sao102, neuroendocrine-dlg; PDZ domains 1-2 of 3) (UniProt P08515 1-218 = GST); experiment: A/G assays
T12 construct: also called NeDLG1
T12 sequence (P08515 1-218, tags or fused parts left off): as the sequence (P08515 1-218, tags or fused parts left off) above

Binder	binding result
Biotin-LERTSSVSPSTAEPELSIVF [CC CKR-3 C-terminal PL peptide AA43L, biotinylated]	no binding
Biotin-TIYENLAPVTTFGKTIA [CD148 C-terminal PL peptide AA55L (ends KTIA), biotinylated]	no binding

biological target: T13, GST-RGS12 PDZ domain fusion protein (human regulator of G-protein signalling 12 AA35-103; PDZ domain 1 of 1) (human, UniProt P08515 1-218 = GST); experiment: A/G assays
T13 construct: also called RSG12
T13 sequence (P08515 1-218, tags or fused parts left off): as the sequence (P08515 1-218, tags or fused parts left off) above

Binder	binding result
Biotin-LERTSSVSPSTAEPELSIVF [CC CKR-3 C-terminal PL peptide AA43L, biotinylated]	no binding
Biotin-TIYENLAPVTTFGKTIA [CD148 C-terminal PL peptide AA55L (ends KTIA), biotinylated]	no binding

biological target: T14, GST-KIAA0316 PDZ domain fusion protein (KIAA0316 AA197-284; PDZ domain 1 of 1) (UniProt P08515 1-218 = GST); experiment: A/G assays
T14 construct: also called K316

Binder	binding result
Biotin-LERTSSVSPSTAEPELSIVF [CC CKR-3 C-terminal PL peptide AA43L, biotinylated]	no binding
Biotin-TIYENLAPVTTFGKTIA [CD148 C-terminal PL peptide AA55L (ends KTIA), biotinylated]	no binding
